{"source": "patent US11339371B2", "about": "“Method for inducing pluripotent stem cells to differentiate into ventricular myocytes in vitro” (Institute of Biophysics, Chinese Academy of Sciences, priority 2012, dated 2022)", "molecules": {"B1": {"name": "noggin: BMP2/4 pathway inhibitor (BMP antagonist); purchased from R&D systems (protein, UniProt Q13253 28-232, looked up)", "Noggin": "QHYLHIRPAPSDNLPLVDLIEHPDPIFDPKEKDLNETLLRSLLGGHYDPGFMATSPPEDRPGGGGGAAGGAEDLAELDQLLRQRPSGAMPSEIKGLEFSEGLAQGKKQRLSKKLRRKLQMWLWSQTFCPVLYAWNDLGSRFWPRYVKVGSCFSKRSCSVPEGMVCKPSKSVHLTVLRWRCQRRGGQRCGWIPIQYPIISECKCSC"}, "B2": {"name": "BMP4: bone morphogenetic protein, growth factor activating Smad1/5/8 signaling; purchased from R&D systems (protein, UniProt P12644 293-408, looked up)", "Bone morphogenetic protein 4": "SPKHHSQRARKKNKNCRRHSLYVDFSDVGWNDWIVAPPGYQAFYCHGDCPFPLADHLNSTNHAIVQTLVNSVNSSIPKACCVPTELSAISMLYLDEYDKVVLKNYQEMVVEGCGCR"}}, "type_in_all_cases": "cell-based, human", "key": {"[1]": {"tested_on": "MLC-2v-expressing VMs among differentiated CMs", "assay": "flow cytometry of MLC-2v-expressing cells among cTNT-expressing CMs at day 90", "details": "for proportion of MLC-2v-expressing cells among differentiated CMs: day 90", "experimental": "(§1) In some embodiments, from about day 14 of differentiation, growth factor-free medium is used and replaced every 3 days. After about 60 to about 90 days of differentiation, the percentage of VMs in the differentiated CMs was determined with the analysis of APs of CMs (recorded by the patch clamp technique), calcium imagining studies, and/or MLC-2v and cardiac troponin T (cTNT) double immunofluorescence staining for flow cytometric analysis.\n(§2) RA represents 1 μM retinoic acid; B represents BMP4; NVa represents vitamin A-free medium; N represents noggin; and numbers represent the concentrations (Unit is ng/mL). The RARγ concentration is 0.1 μM.\n(§3) 5) As mentioned above, during early differentiation of CMs, IRX-4 is an important gene with specific expression in differentiated VMs. As CMs mature, VMs begin to specifically express the MLC-2v gene. Thus, the MLC-2v expression level was measured in differentiated cells at day 90 of culture after treatment with various growth factors. […] Moreover, flow cytometry was performed to determine the proportion of MLC-2v-expressing VMs among differentiated CMs (cTNT-expressing cells) at day 90. […] The most classical method to identify the subtypes of CMs is to measure the APs of the CMs. The proportions of cells with atrial-, ventricular-, and nodal-like APs among differentiated CMs were analyzed after treatment with retinoic acid and various doses of BMP4 (FIG. 8)."}, "[2]": {"tested_on": "differentiated CMs", "assay": "action potential classification of differentiated CMs (patch clamp)", "details": "for proportion of CMs with ventricular-like APs: treatment alone during middle stage, differentiated CMs at 90 days", "experimental": "as §1, §2, §3"}, "[3]": {"tested_on": "IRX-4", "assay": "quantitative RT-PCR of ventricle-specific early marker gene IRX-4 at day 14 of differentiation", "details": "for IRX-4 expression level (FIG. 2A): added to the cultures at various concentrations, relative to GADPH", "excerpt": "T-Smad1/5/8 represents total Smad1/5/8 proteins. β-actin served as an internal loading control. The histogram in FIG. 1C presents the experimental results of quantitative RT-PCR analysis of IRX-4 gene expression levels at 14 days of differentiation. […] Connected line indicates the cardiac differentiation efficiency of the stem cells under the corresponding inductive conditions. N represents noggin, B represents BMP4; NVa represents differentiated cells cultured in vitamin A-free medium; RA represents retinoic acid; and numbers represent the concentrations (Unit for BMP4 is ng/mL). Data are expressed as relative values compared with the expression level of glyceraldehyde-3-phosphate dehydrogenase (GADPH).\nFIG. 2 presents quantitative RT-PCR analysis of the expression levels of the ventricle-specific early marker gene IRX-4 at day 14 in differentiated cultures with various treatments. […] However, the expression level is reduced by addition of a BMP antagonist, noggin. […] N represents noggin; B represents BMP4, NVa represents differentiated cells treated in vitamin A-free medium; RA represents retinoic acid; and numbers represents the concentrations (Unit is ng/mL). The results of quantitative RT-PCR are indicated as relative values compared with the expression levels of GADPH.\nRA represents retinoic acid; RAi represents a retinoic acid inhibitor, BMS189453; NVa represents vitamin A-free medium; The RAR pan-antagonist is BMS493. The results of quantitative RT-PCR are expressed as relative values compared with cTNT expression\n2) The role of the BMP pathway in directed differentiation of CM subtypes was analyzed further during cardiac differentiation of stem cells. IRX-4 is a marker gene expressed during early differentiation of VMs. Thus, the IRX-4 expression level was measured to further study the role of the BMP pathway in differentiation of CM subtypes."}, "[4]": {"tested_on": "BMP2", "assay": "quantitative RT-PCR of BMP2 expression at day 6 of differentiation", "details": "added with DKK1, vitamin A-free medium", "excerpt": "The results of quantitative RT-PCR are indicated as relative values compared with those of GADPH. NVa represents vitamin A-free medium.\nAdditionally, in vitamin A-containing medium, early specific IRX-4 expression in VMs was activated by addition of DKK1 and antagonists of RARα and RAR. This indicated induced differentiation of stem cells into VMs. Because retinoic acid has three RARs receptors (RARα, RARβ, and RARγ), simultaneous inhibition of RARα and RARβ in the presence of vitamin A or retinoic acid has a similar mechanism and effect as that of independent activation of RARγ alone."}, "[5]": {"tested_on": "differentiated CMs", "assay": "calcium imaging of differentiated CMs by confocal laser scanning microscopy at 60-90 days", "details": "60-90 days of differentiation", "excerpt": "FIG. 5 presents images from confocal laser scanning microscopy and simultaneous recordings of APs of calcium activity in differentiated CMs and the classification of the differentiated CMs according to the specific calcium activity patterns in the various types of CMs. […] FIG. 5B presents the proportions of CMs with Ca^2+ sparks, Ca^2+ transients, and Ca^2+ oscillations in different treatments as classified by calcium signaling patterns of the various subtypes of CMs in A. The vertical axis represents the proportions of CMs with the three different calcium activities; RA represents 1 μM retinoic acid; Letter B represents BMP4; NVa represents vitamin A-free medium; N represents noggin; and numbers represent the concentrations (ng/mL).\n4) To verify the role of the BMP pathway in regulating the differentiation of VMs from stem cells, calcium activities of cardiomyocytes were recorded with confocal laser scanning microscopy at 60-90 days of differentiation. Calcium activity in VMs clearly differs from that in AMs and nodel cells. Calcium activity in VMs has a higher imaging frequency, known as Ca^+ sparks. […] Thus, comparing the image pattern of calcium activities in CMs is an effective method to distinguish VMs from AMs and nodel cells."}, "[6]": {"tested_on": "MLC-2v", "assay": "western blot of MLC-2v expression in differentiated cells at day 90", "experimental": "FIG. 4B presents the results of double immunofluorescence staining of cTNT and MLC-2v in CMs at day 90 of differentiation after retinoic acid, BMP4, and noggin treatments. Letter B in the figures represents BMP4, NVa represents differentiated cells cultured in vitamin A-free medium; RA represents 1 μM retinoic acid; and numbers represent the concentrations (ng/mL).\nas §3"}}}
{"molecule": "CC1(C)CCC(C)(C)c2cc([C@@H](O)C(=O)Nc3ccc(C(=O)O)cc3F)ccc21", "note": "[RARγ, reference compound]", "values": [{"measurement": "proportion of MLC-2v-expressing cardiomyocytes in cardiomyocytes population (cTNT-expressing cells)", "setting": "[1]; 90 days of differentiation, 0.1 μM, vitamin A-free medium", "value": "up to 80%"}, {"measurement": "proportion of CMs with ventricular-like APs", "setting": "[2]", "value": 92, "unit": "%"}, {"measurement": "ventricle-specific IRX-4 expression", "setting": "[3]; added along with DKK1 during middle stage of cardiac differentiation, vitamin A-free medium, relative to cTNT", "value": "high expression"}, {"measurement": "BMP2 expression", "setting": "[4]", "value": "high expression"}]}
{"molecule": "B1", "values": [{"measurement": "IRX-4 expression level (FIG. 2A)", "setting": "[3]; day 14", "value": "reduced"}, {"measurement": "elevation of the IRX-4 expression level by BMP4 in the presence of retinoic acid (FIG. 2D)", "setting": "[3]; increasing concentrations of noggin, day 14", "value": "reduced with additions of increasing concentrations of noggin"}, {"measurement": "IRX-4 expression level", "setting": "[3]; vitamin A-free medium, added day 5 to day 8 of differentiation, 300, 600, 1200 ng/mL", "value": "effectively reduced"}]}
{"molecule": "B2", "values": [{"measurement": "proportion of MLC-2v-expressing cells among differentiated CMs", "setting": "[1]; BMP4 added to cells after retinoic acid treatment", "value": "effectively increased"}, {"measurement": "proportion of MLC-2v-expressing cells among differentiated CMs", "setting": "[1]; BMP4 treatment alone", "value": "highest proportion"}, {"measurement": "proportion of cells with ventricular-like APs", "setting": "[2]; differentiated CMs after retinoic acid treatment, increasing doses of BMP4", "value": "increased significantly"}, {"measurement": "proportion of CMs with ventricular-like APs", "setting": "[2]", "value": "more than 90%"}, {"measurement": "proportion of cells with Ca+ sparks among differentiated CMs", "setting": "[5]; retinoic acid plus increasing BMP4", "value": "increased with increasing concentrations of BMP4"}, {"measurement": "proportion of cells with Ca+ transients among differentiated CMs", "setting": "[5]; retinoic acid treatment, with or without BMP4", "value": "decreased with increasing concentrations of BMP4"}, {"measurement": "MLC-2v protein expression level", "setting": "[6]", "value": "increased with increasing concentrations of BMP4"}, {"measurement": "IRX-4 expression level in retinoic acid-treated culture", "setting": "[3]; added simultaneously with 1 μM retinoic acid, day 5 to day 8, various doses", "value": "increased correspondingly"}, {"measurement": "IRX-4 expression level (FIG. 2A)", "setting": "[3]; day 14", "value": "elevated with increasing concentrations of BMP4"}]}
